Test results published in US20120301394A1 (published 2012).

T1: Recombinant mouse MMR (R&D systems) (mouse, UniProt Q61830 20-1388)
T1 construct: Bought recombinant extracellular portion of mouse MMR with a C-terminal His tag; It was immobilized on the CM5 chip for SPR and coated on plates for PE-ELISA; The SPR methods say only 'MMR'; also called mMMR; recombinant MMR
T1 sequence: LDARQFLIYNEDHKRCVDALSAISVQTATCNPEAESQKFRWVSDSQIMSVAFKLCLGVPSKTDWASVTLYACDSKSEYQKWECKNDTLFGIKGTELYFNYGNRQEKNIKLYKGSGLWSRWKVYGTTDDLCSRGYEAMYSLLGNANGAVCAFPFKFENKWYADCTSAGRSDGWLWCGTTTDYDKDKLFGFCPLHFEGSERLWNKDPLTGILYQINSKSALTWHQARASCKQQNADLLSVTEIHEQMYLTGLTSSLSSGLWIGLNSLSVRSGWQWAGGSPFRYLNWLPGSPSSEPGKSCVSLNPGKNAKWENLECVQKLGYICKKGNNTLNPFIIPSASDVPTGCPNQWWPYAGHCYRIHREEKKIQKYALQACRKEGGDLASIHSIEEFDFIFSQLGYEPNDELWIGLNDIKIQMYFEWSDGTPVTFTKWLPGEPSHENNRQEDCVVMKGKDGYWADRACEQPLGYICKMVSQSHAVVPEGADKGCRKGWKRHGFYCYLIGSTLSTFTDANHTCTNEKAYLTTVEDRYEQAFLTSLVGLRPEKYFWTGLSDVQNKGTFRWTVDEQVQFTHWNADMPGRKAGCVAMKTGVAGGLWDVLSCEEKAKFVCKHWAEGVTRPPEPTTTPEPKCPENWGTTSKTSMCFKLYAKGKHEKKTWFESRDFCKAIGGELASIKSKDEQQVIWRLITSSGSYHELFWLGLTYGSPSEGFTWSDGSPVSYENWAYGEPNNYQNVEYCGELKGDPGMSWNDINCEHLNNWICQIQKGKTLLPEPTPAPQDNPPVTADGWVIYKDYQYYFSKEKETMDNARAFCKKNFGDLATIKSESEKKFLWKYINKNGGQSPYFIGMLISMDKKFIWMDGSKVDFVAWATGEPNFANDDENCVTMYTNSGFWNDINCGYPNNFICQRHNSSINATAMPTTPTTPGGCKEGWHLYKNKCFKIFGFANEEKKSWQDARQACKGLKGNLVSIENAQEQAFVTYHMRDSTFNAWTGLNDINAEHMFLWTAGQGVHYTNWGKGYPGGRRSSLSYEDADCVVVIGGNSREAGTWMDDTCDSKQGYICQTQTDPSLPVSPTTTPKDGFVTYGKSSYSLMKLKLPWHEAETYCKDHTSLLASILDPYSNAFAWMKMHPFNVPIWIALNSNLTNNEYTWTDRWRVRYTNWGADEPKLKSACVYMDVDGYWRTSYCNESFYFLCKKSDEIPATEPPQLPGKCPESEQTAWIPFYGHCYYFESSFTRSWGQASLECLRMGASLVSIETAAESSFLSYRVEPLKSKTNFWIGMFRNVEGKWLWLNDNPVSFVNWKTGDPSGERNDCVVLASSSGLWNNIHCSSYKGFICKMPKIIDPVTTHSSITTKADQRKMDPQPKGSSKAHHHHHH

T2: Recombinant human MMR (R&D systems) (human, UniProt P22897 19-1383)
T2 construct: Bought protein (R&D Systems #2534) coated on ELISA plates; also called hMMR; MRC1
T2 sequence: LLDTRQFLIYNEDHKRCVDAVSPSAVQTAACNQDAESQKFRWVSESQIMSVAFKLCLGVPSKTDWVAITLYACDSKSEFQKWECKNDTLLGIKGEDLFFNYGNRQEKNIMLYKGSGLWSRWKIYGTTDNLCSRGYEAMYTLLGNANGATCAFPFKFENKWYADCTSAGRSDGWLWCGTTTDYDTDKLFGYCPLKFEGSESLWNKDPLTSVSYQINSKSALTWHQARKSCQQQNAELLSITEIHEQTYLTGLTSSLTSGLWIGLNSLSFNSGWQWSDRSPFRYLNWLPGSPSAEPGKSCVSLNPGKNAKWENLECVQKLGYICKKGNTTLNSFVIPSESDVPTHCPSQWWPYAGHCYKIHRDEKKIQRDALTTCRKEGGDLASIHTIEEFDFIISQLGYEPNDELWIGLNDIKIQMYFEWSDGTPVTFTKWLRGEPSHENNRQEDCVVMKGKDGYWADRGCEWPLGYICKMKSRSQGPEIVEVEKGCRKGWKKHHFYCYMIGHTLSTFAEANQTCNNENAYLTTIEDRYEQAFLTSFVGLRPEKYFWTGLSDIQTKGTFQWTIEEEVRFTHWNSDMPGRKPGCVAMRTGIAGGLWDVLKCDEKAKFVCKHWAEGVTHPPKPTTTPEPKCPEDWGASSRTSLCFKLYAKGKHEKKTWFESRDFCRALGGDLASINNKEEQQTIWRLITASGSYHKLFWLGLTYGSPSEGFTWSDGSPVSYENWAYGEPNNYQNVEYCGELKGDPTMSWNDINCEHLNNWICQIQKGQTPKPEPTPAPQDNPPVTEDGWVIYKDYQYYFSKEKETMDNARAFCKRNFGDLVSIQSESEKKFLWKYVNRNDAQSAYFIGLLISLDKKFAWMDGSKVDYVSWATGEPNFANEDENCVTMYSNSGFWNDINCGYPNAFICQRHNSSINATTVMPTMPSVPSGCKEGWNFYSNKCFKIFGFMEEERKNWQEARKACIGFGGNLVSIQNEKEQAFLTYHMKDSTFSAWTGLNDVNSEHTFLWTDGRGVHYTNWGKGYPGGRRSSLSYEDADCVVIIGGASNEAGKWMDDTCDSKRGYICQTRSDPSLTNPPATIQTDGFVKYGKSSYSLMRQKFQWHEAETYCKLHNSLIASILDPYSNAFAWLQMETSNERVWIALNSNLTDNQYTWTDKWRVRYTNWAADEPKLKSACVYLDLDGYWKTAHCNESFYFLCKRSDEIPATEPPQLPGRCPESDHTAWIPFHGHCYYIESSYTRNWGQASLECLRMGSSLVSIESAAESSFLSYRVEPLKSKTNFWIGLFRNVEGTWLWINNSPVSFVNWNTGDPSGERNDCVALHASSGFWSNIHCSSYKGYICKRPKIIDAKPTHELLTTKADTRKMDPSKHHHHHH


Columns and labels:
[1] = molecular target: T1, Recombinant mouse MMR (R&D systems); assay: SPR, BIAcore T100, MMR immobilized on CM5 chip, bivalent Nb as analyte
Procedure: (§1) Affinity analysis was performed using a BIAcore T100 (GE Healthcare) with HEPES-buffered saline running buffer (10 mM HEPES with 0.15 M NaCl, 3.4 mM EDTA and 0.005% surfactant P20 at pH 7.4). MRR was immobilized on a CM5 chip in acetate buffer 50 mM (pH 5.0), resulting in 2100 RU MMR coated on the chip. A second channel on the same chip was activated/deactivated in a similar way and served as a negative control. The MMR Nanobodies were used as analytes in eleven different concentrations, ranging from 1 to 2000 nM, at a flow rate of […]. Glycine-HCl 50 mM (pH 2.0) was used for elution. The kinetic and equilibrium parameters (kd, ka and KD) values were calculated from the combined sensogram of all concentrations using BIAcore T100 evaluation software 2.02 (GE Healthcare).

[2] = molecular target: T1, Recombinant mouse MMR (R&D systems); assay: SPR on immobilized recombinant MMR
Procedure: as §1
Nanobodies (Nb) were raised against the recombinant extracellular portion of MMR (α-MMR Nb), as described in the Materials and Methods (see also Example 9; Table 4). The binding characteristics of the monovalent anti-MMR nanobodies were compared using surface Plasmon resonance measurements (Table 5). […] Further, bivalent nanobodies were constructed by linking two anti-MMR nanobody 1 entities using (G₄S)₃ ([…]; SEQ ID NO:121), llama IgG2 hinge ([…]; SEQ ID NO:122) or human IgA hinge ([…] SEQ ID NO:123) linkers. […] As a negative control nanobody in all experiments, we consistently used α-BCII10 Nb, which is a binder of the β-lactamase BCII enzyme of Bacillus cereus.

[3] = molecular target: T2, Recombinant human MMR (R&D systems); assay: listed as a cross-reactive Nb; selection by PE-ELISA on human MMR (Example 26)
[4] = molecular target: T1, Recombinant mouse MMR (R&D systems); assay: listed as a cross-reactive Nb; selection by PE-ELISA on mouse MMR (Example 26)
[5] = molecular target: T2, Recombinant human MMR (R&D systems); assay: PE-ELISA, periplasmic extract on coated human MMR, OD405 at least 3x over milk-blocking proteins
[6] = molecular target: T1, Recombinant mouse MMR (R&D systems); assay: SPR, BIAcore T100, MMR immobilized on CM5 chip, Nb as analyte
Procedure: as §1
Nanobodies (Nb) were raised against the recombinant extracellular portion of MMR (α-MMR Nb), as described in the Materials and Methods (see also Example 9; Table 4). The binding characteristics of the monovalent anti-MMR nanobodies were compared using surface Plasmon resonance measurements (Table 5). […] Further, bivalent nanobodies were constructed by linking two anti-MMR nanobody 1 entities using (G₄S)₃ ([…]; SEQ ID NO:121), llama IgG2 hinge ([…]; SEQ ID NO:122) or human IgA hinge ([…] SEQ ID NO:123) linkers. […]

Row | Kd [1] [nM] | fold higher avidity compared to the monovalent clone 1 nanobody [2] [fold] | binding result [5] | Binder | further results
1 | 4.04 | 5 |  | bivalent anti-MMR Nanobody 1 with llama IgG2 hinge linker (VHH, Two copies of Nb clone 1 in one chain joined by the llama IgG2 hinge linker, with a C-terminal His tag; also called biv MMR linker 2 g2c; MMR biv g2c) QVQLQESGGGLVQPGGSLRLSCAASGNIFSINAIGWYRQAPGKQRELVATITLSGSTNYADSVKGRFSISRDNAKNTVYLQMNSLKPEDTAVYYCNANTYSDSDVYGYWGQGTQVTVSSAHHSEDPSSKAPKAPMAQVQLQESGGGLVQPGGSLRLSCAASGNIFSINAIGWYRQAPGKQRELVATITLSGSTNYADSVKGRFSISRDNAKNTVYLQMNSLKPEDTAVYYCNANTYSDSDVYGYWGQGTQVTVSSHHHHHH | 
2 |  |  |  | NbhmMMRm26.70 (VHH) VHH: QVQLQESGGGLVQPGGSLRLSCTASGFPFSSAPMSWVRQAPGKELEWVSYIGYTGTITDYANSVKGRFTISRDNAKNRLYLQMNSLKPEDTAVYFCAQGYARLIADSDLVRGQGTQVTVSS | binding result [3]: binds; binding result [4]: binds
3 |  |  | binds | NbhMMRm15.43 (VHH, Tested as a periplasmic extract in PE-ELISA) VHH: QVQLQESGGTLVQPGGSLRLSCAASGSTFSINNMGWYRQAPGKQRELVAGITGGNTHYADSVKGRFTISRDNAKNTMYLQMNGLKPEDTAVYYCNANWGAYWGQGTQVTVSS | 
4 |  |  |  | anti-MMR Nanobody clone 3 (VHH, also called Anti-MMR Nb3; Nb clone 3) VHH: QVQLQESGGGLVQAGGSLRLSCAASGRTFSRDAMGWFRQAPGKEREFVAGISWSGGSTYYADSVKGRFTISRDGAKNTVNLQMNSLKPEDTAVYYCAASSIYGSAVVDGLYDYWGQGTQVTVSS | Kd [6]: 191 nM
5 |  |  | binds | NbhMMRm11.5 (VHH, Tested as a periplasmic extract in PE-ELISA) VHH: QVQLQESGGGLVQPGGSLMLSCAASGNIFTINRMGWYRQAPGKQRELVAAITSGGNTNYADSVKGRFTISRDNAKNTVYLQMNSLKPEDTAVYYCNAAIVTMTSPYSDYWGQGTQVTVSS | 
6 |  |  |  | anti-MMR Nanobody clone 1 (VHH, Monovalent alpaca VHH against mouse MMR; Alexa-fluor labelled for flow cytometry and immunofluorescence; also called Anti-MMR Nb1; anti-MMR Nb clone 1) VHH: QVQLQESGGGLVQPGGSLRLSCAASGNIFSINAIGWYRQAPGKQRELVATITLSGSTNYADSVKGRFSISRDNAKNTVYLQMNSLKPEDTAVYYCNANTYSDSDVYGYWGQGTQVTVSS | Kd [6]: 23.1 nM; fold higher apparent affinity compared to nanobody clone 3 [2]: 8 fold
7 |  |  |  | NbhmMMRm7.67 (VHH) VHH: QVQLQESGGGLVQAGGSLRLSCVDQGRTFSVNAMAWYRQAPGKQRELVASITSSGLDTQYAEGMKGRFTISKGNDKFSTYLQMNNLKPDDTAVYYCNAERWDNGMVYWGKGTQVTVSS | binding result [3]: binds
8 | 4.69 | 5 |  | bivalent anti-MMR Nanobody 1 with human IgA hinge linker (VHH, Two copies of Nb clone 1 in one chain joined by the human IgA hinge linker, with a C-terminal His tag; also called biv MMR linker 3 IgA; MMR biv IgA) QVQLQESGGGLVQPGGSLRLSCAASGNIFSINAIGWYRQAPGKQRELVATITLSGSTNYADSVKGRFSISRDNAKNTVYLQMNSLKPEDTAVYYCNANTYSDSDVYGYWGQGTQVTVSSSPSTPPTPSPSTPPASQVQLQESGGGLVQPGGSLRLSCAASGNIFSINAIGWYRQAPGKQRELVATITLSGSTNYADSVKGRFSISRDNAKNTVYLQMNSLKPEDTAVYYCNANTYSDSDVYGYWGQGTQVTVSSHHHHHH | 
9 |  |  | binds | NbhMMRm16.95 (VHH, Tested as a periplasmic extract in PE-ELISA) VHH: QVQLQESGGGLVQPGGSLGLSCAASGRIASISAMGWYRQAPGKQRELVAAITGSGRTNYADSVKGRFTISRDNAKNTVYLQMNSLKPEDTAVYYCNLLMVDYGLGLGTDYWGQGTQVTVSS | 
10 | 4.22 | 5 |  | bivalent anti-MMR Nanobody 1 with (Gly4Ser)3 linker (VHH, Two copies of Nb clone 1 in one chain joined by a (G4S)3 linker, with a C-terminal His tag; also called biv MMR linker 1 GS; MMR biv (Gly4Ser)3) QVQLQESGGGLVQPGGSLRLSCAASGNIFSINAIGWYRQAPGKQRELVATITLSGSTNYADSVKGRFSISRDNAKNTVYLQMNSLKPEDTAVYYCNANTYSDSDVYGYWGQGTQVTVSSGGGGSGGGGSGGGGSQVQLQESGGGLVQPGGSLRLSCAASGNIFSINAIGWYRQAPGKQRELVATITLSGSTNYADSVKGRFSISRDNAKNTVYLQMNSLKPEDTAVYYCNANTYSDSDVYGYWGQGTQVTVSSHHHHHH | 
